According to the DeepSol protein solubility set:

Assay: soluble on expression in E. coli; label from the status in PepcDB or PDB records

Q: With “YHPVFSAKIEQRLIERFGVRRALIALDQPNDEAQRQQVAGLVSNYLTSTLKNGMVVTVGQGRNVSAVAHHVGVITPRDCKFVCSIGGIHPRGGMFNADHICRQLAKKYGGSSETLYAPAYAENPEQKRVFMQNSTVKQTLDLARKADIALVGIGDMSENSYMVDLGWFTPEEVVQSRLNQGVVGDFAGHDFFDVHGRIANTVMNDRVIGLGIDEFRPIAEVIAIAAENSKPLALLGALRTGAIDVIATSVSNALTVLNLDEQMQTALSAS” as the sequence, how does the “soluble on expression in E. coli” value read?
A: not soluble

Q: Which “soluble on expression in E. coli” value does the source give for “MSLAGTFAIAPTPFHDDGKIDDVSIDRLTDFYAEVGCEGVTVLGILGEAPKLDAAEAEAVATRFIKRAKSMQVIVGVSAPGFAAMRRLARLSMDAGAAGVMIAPPPSLRTDEQITTYFRQATEAIGDDVPWVLQDYPLTLSVVMTPKVIRQIVMDSASCVMLKHEDWPGLEKITTLRGFQKDGSLRPLSILCGNGGLFLDFEMERGADGAMTGYCFPDMLVDVVKLSKAGQRDLAHNLFDAHLPLIRYEHQQGVGLSVRKYVLKKRGLLSSSAQRKPGASLTDTAREEVDYLLSRLARVEGHHHHHH” here?
A: not soluble

Q: For “TKDFSWDTTLSFTWSKEKINSLPTGDLIKENLFEGQPIHALYDYKYAGIWGSNVPQETLDAYGVKPGWVKIETLDKDGDGGVHKYGEDDRQILGHTNPDVILGLNNTLTYKNFDLSIFAMARYGQTIKSSLIGWYRASSNYSINQPAGVDYWTENNQGAYYPVPGSGDEQKVMSALTYRDGSFIKVKNITLGYTLPQSVSRKVLMEKCRFYATAYNPFLYVKDKELRGTDPETNGSDAFPLYKQFVFGINVTF”, which “soluble on expression in E. coli” value is on record?
A: not soluble

Q: Which “soluble on expression in E. coli” value does the source give for “MGTKIIGTGVYLPKNVLTNFDLEKIVDTSDEWITTRTGIKERRIAKEETITYMATQAAKEALREANLSPEELDLIILATLTPQKRFPSTACLVQAQLKAKGVYAFDISAACSGFIYALDIADSFIKSGKAKNVLVIGAEKLSEAVDWEDRSTCVLFGDGAGAVVVTRSEDKSDILATRMYAEGSLEELLHADNCGYIRMKGRELFKVAVRSMEEVCREVLEKAGVKPEEVSLVIPHQANVRIINALAEKLNIPKEKVFVNIQKYGNTSAASIPIALHEAIKEGKVKRGDLILMTAMGGGLTWGAVLLRY” here?
A: soluble

Q: With “MELVSVAALAENRVIGRDGELPWPSIPADKKQYRSRVADDPVVLGRTTFESMRDDLPGSAQIVMSRSERSFSVDTAHRAASVEEAVDIAASLDAETAYVIGGAAIYALFQPHLDRMVLSRVPGEYEGDTYYPEWDAAEWELDAETDHEGFTLQEWVRSASSR” as the sequence, how does the “soluble on expression in E. coli” value read?
A: soluble

Q: With “MGSDKIHHHHHHMRFWDIRRVENVSLNLQLENGKLEKPRYNKSTSKGFRVLKNGFWGIFEGNVADDEGLRQAEKNAFTQGDGDIEEIATKGRYRMRVKRDPQDMSIEEKVELLKDLEKIIRDVCVSTKLVYFENRRVLQYRDSCGSEVEYEVLRTGVSIMGVGKGRSLQFLSKRQMRVGGYEVLDGVDEKAYEIVEVLPKLVNALAPPSGEMSVVMDSSLAGVFVHEAFGHAVEADHVLQGATVLKGRLNEKVADESVTIIDDPTLPEFGFFPFDDEGVRAEKKVIVEDGVLKSFLHSRETAKKLGGVAGNARSQGVDVPIVRMSNTYIDTHHYSFDELLEECRDGVYLVGSRGGETNPATGYFHFNAQYGYLIKNGELAEMVRDVSLSGNTLEILRNVKIGREIEFDPGFCGKAGQLVPVSDGSPPVLCRATVGGA” as the sequence, how does the “soluble on expression in E. coli” value read?
A: not soluble

Q: Which “soluble on expression in E. coli” value does the source give for “GSGEAKPQAPELRIFPKKMDAELGQKVDLVCEVLGSVSQGCSWLFQNSSSKLPQPTFVVYMASSHNKITWDEKLNSSKLFSAMRDTNNKYVLTLNKFSKENEGYYFCSVISNSVMYFSSVVPVLQKVNSTTTKPVLRTPSPVHPTGTSQPQRPEDCRPRGSVKGTG” here?
A: soluble

Q: For “MLMATMTPWYLYLIRTADNALYTGITTDVARRYRQHQTGKGAKALRGKGELTLAFAAQVGDRSLALRIEYRIKQLTKRQKERLVTEREAFEALLSSLQTPVLKND”, which “soluble on expression in E. coli” value is on record?
A: not soluble

Q: Which “soluble on expression in E. coli” value does the source give for “SLNERVMMINANGVPIALYNRGHLGSGHFGAVIKASLDDGTLYAAKVPYSQIVPNADATSAELEAEISSARAELVKTIRQELDVRDKLVAKGLTLTETAEQYGLPLCQMTLTLPENKATVVRRGSRLVVVSKEVMLLPLIDGSPSNSLVQSQPPFLFQRAVAREAIIALAKLHELGFAHGDVKLNNMMIDVHGFGHMLDMGSVRPVDSCVSEEDKYYLRLWAPELAKSQHTSQQTCLKRGALDVWALGLAIFEFVCFNRLPYSLSNLPSSLWSRVEHLSRLRLSDFSAKDCNESDPAVMGIVAQFLNPNPEERPELPKFVSSYTFFRQAPGVTSHLTRIPTTELSSHR” here?
A: not soluble

Q: With “MGHHHHHHGGHMSLTDVNVKIDIMHPQPIVGLGNPAIFVQGSTQNYKEYTSLETLAKDFATTTTVYKKAEIIWKQENKPQTIAVVTFVADTPTSPEQPDSLIAGSGIIAAATSYFYNDWHFALLANFVEADALALSNLIEENEFKFLVIQTATVDELTVFTGNNLTIGLVHPLEEFLDAALIGNTASLTVGSVTWKFRHNLVGITPNTLTTSQLQAIEKANAIAYVSKAGIPQTSEGKTMSGEFIDALHGDHWVKSNIETNVQRLLSTTDKLTFDSNGIALLDTTVANVLETAFNNGIVDIVDETGVGNYSVTALGRQDLNPDDIAARNYKGLSFKYKRSGAIHTVDVTGTIEVEGGS” as the sequence, how does the “soluble on expression in E. coli” value read?
A: soluble

Q: Which “soluble on expression in E. coli” value does the source give for “MQCGLLKHRLLKFFSTEAIMTTNQRSIKAPQTVVVKLGTSVLTGGTLALDRAHMVELARQCAELKKQGHSVVIVTSGAIAAGREHLGYPALPNAISSKQLLAAVGQSRLIQVWESLFAIYGIKIGQMLLTRADLDDRERFLNARDTINALVENGIVPVVNENDAVATNEIKVGDNDNLSALVGILCGADKLLLLTDQKGLFTADPRKDPNAQLIKEVTTIDDTLRKIAGGSGTTLGTGGMATKLQAADIARRAGIEVIIAAGRAPNVIFDSLSDEPQGTRFLALEEALENRKRWILAGPAASGDIVIDDGAVKAVQTKGSSLLAKGVVRVQGQFARGEVVRVLDKQSHLIARGIAAYSNDELAQIAGKHSKEIIDILGYDHGSEVIHRDDMVVIQE” here?
A: not soluble

Q: Which “soluble on expression in E. coli” value does the source give for “MGHHHHHHSHMVSPSKAVIVPGKIGGDETTHGWYGWVKKELEKIPGFQCLAKNMPDPITARESIWLPFMETELHCDEKTIIIGHSSGAIAAMRYAETHRVYALILVSAYTSEFGDENERASGYFSRPWQWEKIKANCPHIVQFGSTDDPFLPWKEQQEVADSWTPNCTNSLTVVTFRTQSSMN” here?
A: not soluble

Q: Which “soluble on expression in E. coli” value does the source give for “MNTILAQQIANEGGVEAWMIAQQHKSLLRFLTCGSVDDGKSTLIGRLLHDTLQIYEDQLSSLHNDSKRHGTQGEKLDLALLVDGLQAEREQGITIDVAYRYFSTERRKFIIADTPGHEQYTRNMATGASTCDLAILLIDARKGVLDQTRRHSFISTLLGIKHLVVAINKMDLVDYREETFARIREDYLTFAEQLPGDLDIRFVPLSALEGDNVAAQSANMRWYSGPTLLEVLETVDIQRAVDRQPMRFPVQYVNRPNLDFRGYAGTLASGSVKVGERIKVLPSGVESSVARIVTFDGDKEEACAGEAITLVLNDDIDISRGDLLLAANETLAPARHAAIDVVWMAEQPLAPGQSYDVKLAGKKTRARIEAIRYQIDINNLTQRDVESLPLNGIGLVEMTFDEPLALDIYQQNPVTGGLIFIDRLSNVTVGAGMVRELDERGATPPVEYSAFELELNALVRRHFPHWDARDLLGDKHGAA” here?
A: not soluble

Q: With “MGSDKIHHHHHHMQPTYLPWMGYFDLIDIADKFVFLDNVQLERSGWQVRNRIRSSQGELMLRVAIATPKRFDETLIHQTQFVTGHPWRKKHLKSIQMNYQKAPYFAQVYPLLESLYQKDETSLSQFNISVINALCTFMGINTPRMLASELVDIEGIKDARLTSICKHLDADQYLSPLGAMAYIEQESSGGDLGENGIDVFYHQFVHPQYTQVYDGFISHLSIIDALFNLGPQNTVTLIRQFRQAPINYTSLPR” as the sequence, how does the “soluble on expression in E. coli” value read?
A: not soluble

Q: Which “soluble on expression in E. coli” value does the source give for “MSLIQNVYINGLSGVSAQPTFDESYVDGNVQTETIPYRKVLDPDYKQYLNPTASRRFSRLIKMSLVAAQKSIAMADGVMPEAIITGTGLGCLEDTEKFLKALIENNESMLSPTAFIQSTHNTISGQIAMMITCYYPNYTYSNRYFTFESSLLDAVLMLLDKSCKHVLVNAADEIIPAVHTIVKRMHLWDRAEAIAHKNALAVTAGEGVVSMMLSSEKKESSVAAVKALELIYILPKDTSIEAHFKKFLAEASLTAADIDVLVLGMNGDAASDVYYEPVRNLFSTSTHVVYKHHFGESFTASSFAYWLGAQLIRHKKIDASVILSDKGHRAPKRVLLYNQSHNKYHSFCLLTDVDEGHHHHHH” here?
A: not soluble

Q: For “MNTNLAELPVRIFKILSEELQKDNIWIKIVEFDEDPIYYMKSTEIESFLKREKCCEQVLRKWGNRGQTVGSLLARLQFLSRTYEDEFDSIQFHLRRKFKPLRWIPDPEQQVTKEIDEGNIKLECKAQGFPCPEIKWFTKGSKEPVHIGRVYTILRCKCSNEHQYKCVAKNEIREGSPYSEIYRKAGKQFSSVIESEYVDVTSCIRDDELCESCKKYEMGRLSQILAEDQEKPENKVSPVRPNLDITLRAADKVALIMSNCSYVHLPELRTPHCDAQTLADALQKMNYKTVTLADLTLDEMRYFIRVYQKLIGNGVYAVFYFVGHGFEVNGQCYLLGVDAPADAHQPQHSMSMDWLLSIFRHKTPDLNLLLLDVCRKFVPYDAISAFVEYSEQFKKFHRAHRNMVYGYSTSGGVGAYEVKGEVNGVFMKYLKNHVQLEISVIDMLNKVLLDIGDDQKVCDLQVPEIRSTLTHPRSLADPLIFDGHTASFDNHTIHWRLMHELPTPATIRFETQQLVATIWFQFCGNFTNKVYVFASISDFRPCQEDTDMGENEELSENALNHRAFVEFPEELHCSDVREYNDDEEGVSMLWILSGLQKIKKEAGLTCEVHLRHVDDPEKTIEMKNVDIGHILITRIKCLQ”, which “soluble on expression in E. coli” value is on record?
A: not soluble

Q: Which “soluble on expression in E. coli” value does the source give for “MQKRVKEGPFTTEWIDLYLEEAVRKGIKEVGIVDHLYRFHEAKGYYEKYVDISDSKLGRIQKEWLDQVKVVSLYDFTKAIEEAKERWGKRGVTLKLGIEADYFIGCEGELKELLALGDFDYVIGSVHFLNGWGFDNPDTKEYFEVHDLRALYDMFFKTVESAIRTELFDIIAHLDNIKVFNYRLDENEQLSYYEEIACALVETNTATEINAGLYYRYPVREMCPSPLYLQVLAKYGVPITISSDAHYPNDLGNYVQENIQTLRAHGVTQVATFTKRARVMRSLEEEVTNSK” here?
A: not soluble

Q: Which “soluble on expression in E. coli” value does the source give for “MGSDKIHHHHHHMFRILTINPGSTSTKLSIFEDERMVKMQNFSHSPDELGRFQKILDQLEFREKIARQFVEETGYSLSSFSAFVSRGGLLDPIPGGVYLVDGLMIKTLKSGKNGEHASNLGAIIAHRFSSETGVPAYVVDPVVVDEMEDVARVSGHPNYQRKSIFHALNQKTVAKEVARMMNKRYEEMNLVVAHMGGGISIAAHRKGRVIDVNNALDGDGPFTPERSGTLPLTQLVDLCFSGKFTYEEMKKRIVGNGGLVAYLGTSDAREVVRRIKQGDEWAKRVYRAMAYQIAKWIGKMAAVLKGEVDFIVLTGGLAHEKEFLVPWITKRVSFIAPVLVFPGSNEEKALALSALRVLRGEEKPKNYSEESRRWRERYDSYLDGILR” here?
A: not soluble

Q: Which “soluble on expression in E. coli” value does the source give for “AIETETLVVGAGPGGYVAAIRAAQLGQKVTIVEKGNLGGVCLNVGCIPSKALISASHRYEQAKHSEEMGIKAENVTIDFAKVQEWKASVVKKLTGGVEGLLKGNKVEIVKGEAYFVDANTVRVVNGDSAQTYTFKNAIIATGSRPIELPNFKFSNRILDSTGALNLGEVPKSLVVIGGGYIGIELGTAYANFGTKVTILEGAGEILSGFEKQMAAIIKKRLKKKGVEVVTNALAKGAEEREDGVTVTYEANGETKTIDADYVLVTVGRRPNTDELGLEQIGIKMTNRGLIEVDQQCRTSVPNIFAIGDIVPGPALAHKASYEGKVAAEAIAGHPSAVDYVAIPAVVFSDPECASVGYFEQQAKDEGIDVIAAKFPFAANGRALALNDTDGFLKLVVRKEDGVIIGAQIIGPNASDMIAELGLAIEAGMTAEDIALTIHAHPTLGEIAMEAAEVAL” here?
A: soluble
